Sequences and labels used below:
B1: wild type 1OZJ scaffold (B chain of 1OZJ, crystal structure of Smad3-MH1) (other, human, UniProt P84022 1-144, looked up)
chain: MSSILPFTPPIVKRLLGWKKGEQNGQEEKWCEKAVKSLVKKLKKTGQLDELEKAITTQNVNTKCITIPRSLDGRLQVSHRKGLPHVIYCRLWRWPDLHSHHELRAMELCEFAFNMKKDEVCVNPYHYQRVETPVLPPVLVPRHT
notes: domain: Smad3-MH1; 6; also called WT
B2: clone 54 of the 1OZJ scaffold (designed binder)
chain: MSSILPFTPPIVKRLLGWKKGEQNGQEEKWCEKAVKSLVKKLKCTGQLDELEKAITTQNVNTKCITIPRSLDGRLQVSHRKGLPHVIYCRLWRWPDLHSHHELRAMILCDFAFPMKKREVCVNPYHYQRVETPVLPPVLVPRHT
notes: domain: Smad3-MH1
B3: clone 9 of the 1OZJ scaffold (designed binder)
chain: MSSILPFTPPIVKRLLGWKKGEQNGQEEKWCEKAVKSLVKKLKATGQLDELEKAITTQNVNTKCITIPRSLDGRLQVSHRKGLPHVIYCRLWRWPDLHSHHELRAMQLCIFAFLMKKPEVCVNPYHYQRVETPVLPPVLVPRHT
B4: clone 55 of the 1OZJ scaffold (designed binder)
chain: MSSILPFTPPIVKRLLGWKKGEQNGQEEKWCEKAVKSLVKKLKITGQLDELEKAITTQNVNTKCITIPRSLDGRLQVSHRKGLPHVIYCRLWRWPDLHSHHELRAMKLCRFAFPMKKDEVCVNPYHYQRVETPVLPPVLVPRHT
notes: domain: Smad3-MH1
B5: clone 43 of the 1OZJ scaffold (designed binder)
chain: MSSILPFTPPIVKRLLGWKKGEQNGQEEKWCEKAVKSLVKKLKRTGQLDELEKAITTQNVNTKCITIPRSLDGRLQVSHRKGLPHVIYCRLWRWPDLHSHHELRAMHLCNFAFGMKKAEVCVNPYHYQRVETPVLPPVLVPRHT
notes: domain: Smad3-MH1
B6: clone 31 of the 1OZJ scaffold (designed binder)
chain: MSSILPFTPPIVKRLLGWKKGEQNGQEEKWCEKAVKSLVKKLKGTGQLDELEKAITTQNVNTKCITIPRSLDGRLQVSHRKGLPHVIYCRLWRWPDLHSHHELRAMHLCPFAFKMKKWEVCVNPYHYQRVETPVLPPVLVPRHT
notes: domain: Smad3-MH1
B7: clone 53 of the 1OZJ scaffold (designed binder)
chain: MSSILPFTPPIVKRLLGWKKGEQNGQEEKWCEKAVKSLVKKLKATGQLDELEKAITTQNVNTKCITIPRSLDGRLQVSHRKGLPHVIYCRLWRWPDLHSHHELRAMSLCSFAFSMKKIEVCVNPYHYQRVETPVLPPVLVPRHT
notes: domain: Smad3-MH1
B8: clone 8 of the 1OZJ scaffold (designed binder)
chain: MSSILPFTPPIVKRLLGWKKGEQNGQEEKWCEKAVKSLVKKLKGTGQLDELEKAITTQNVNTKCITIPRSLDGRLQVSHRKGLPHVIYCRLWRWPDLHSHHELRAMPLCNFAFTMKKPEVCVNPYHYQRVETPVLPPVLVPRHT
notes: domain: Smad3-MH1
B9: clone 6 of the 1OZJ scaffold (designed binder)
chain: MSSILPFTPPIVKRLLGWKKGEQNGQEEKWCEKAVKSLVKKLKSTGQLDELEKAITTQNVNTKCITIPRSLDGRLQVSHRKGLPHVIYCRLWRWPDLHSHHELRAMGLCSFAFNMKKLEVCVNPYHYQRVETPVLPPVLVPRHT
B10: clone 7 of the 1OZJ scaffold (designed binder)
chain: MSSILPFTPPIVKRLLGWKKGEQNGQEEKWCEKAVKSLVKKLKLTGQLDELEKAITTQNVNTKCITIPRSLDGRLQVSHRKGLPHVIYCRLWRWPDLHSHHELRAMALCAFAFMMKKCEVCVNPYHYQRVETPVLPPVLVPRHT

The target in the first assay is T1, EGFR (Epidermal Growth Factor Receptor) (human, UniProt P00533 26-444, limits assumed).
T1 construct: also called EGF receptor
As to the kind of experiment: phage ELISA, wells coated with 4 ug/ml EGFR, anti-M13-HRP. How it is done: (§1) Individual colonies were randomly selected from the output titration plate of the last round, and inoculated in 1 ml of super broth (3% tryptone, 2% yeast extract, 1% 3-[N-Morpholino] propanesulfonic acid [MOPS], pH 7.0). after overnight incubation at 37° C., the supernatant was used for phage ELISA (enzyme-linked immunosorbant assay). microtitration plate wells were coated with 4 μg/ml EGFR-containing PBS at 4° C. for one night, and blocked with 3% BSA-containing PBS at 37° C. for 1 hour. The plate was cultured with the phage-containing supernatant at 37° C. for 2 hours, and washed with 0.05% Tween-20-containing PBS (PBST) three times. Thereafter, HRP (horseradish peroxidase)-conjugated anti-M13 antibody (Sigma) diluted in a blocking buffer solution (1:2000) was added thereto and cultured at 37° C. for 1 hour. 50 μl of TMB substrate solution (Pierce, Rockford, Ill.) was added to each well, and OD was measured at 650 nm.
B1: the “OD at 650 nm” value is 0.086 OD.

For B2, the “OD at 650 nm” value was found to be 1.16 OD.

For B3, the “OD at 650 nm” value came to 1.75 OD.

As to B4, the “OD at 650 nm” value turned out to be 0.964 OD.

For B5, the “OD at 650 nm” value turned out to be 0.919 OD.

For B6, the “OD at 650 nm” value came out at 0.959 OD.

On to B7, for which the “OD at 650 nm” value worked out at 1.02 OD.

Take B8: the “OD at 650 nm” value was 1.18 OD.

As to B9, the “OD at 650 nm” value is 1.83 OD.

Take B10: the “OD at 650 nm” value was determined as 1.74 OD.

The target in the next assay is T1, EGFR (Epidermal Growth Factor Receptor). Put plainly: phage ELISA, wells coated with 4 ug/ml EGFR, anti-M13-HRP, OD 650 nm. How it is done:
as §1
For the molecule B1, the binding result is reported as “no binding”.

Values taken from US20120071419A1 (POSTECH ACADEMY INDUSTRY FOUNDATION, published 2012).
